Data as given in article PMC5828395 (Genes & Development, 2018).
Where no end group is shown, it is not given here.

Key:
[1] = target: GAS41 YEATS domain (amino acids 15–159) (human) (UniProt O95619); assay: ITC
[2] = target: GAS41 YEATS domain (amino acids 15–159) (human, UniProt O95619 15-159); assay: ITC
Sequence of GAS41 YEATS domain (amino acids 15–159) (O95619 15-159): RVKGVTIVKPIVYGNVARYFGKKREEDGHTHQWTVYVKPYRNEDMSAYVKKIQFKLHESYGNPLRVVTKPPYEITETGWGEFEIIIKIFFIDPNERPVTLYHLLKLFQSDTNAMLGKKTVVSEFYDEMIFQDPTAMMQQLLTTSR

Sequence of GAS41 YEATS domain (amino acids 15–159) (human) (O95619 15-159): as above

Molecule | Kd [1] [µM] | Kd [2] [µM]
H3_(15–39)K27ac peptide (from UniProt P68431 16-40) | 32.7 | –
ARTKQTARKSTGGK(Ac)A (peptide, UniProt P68431 2-16, looked up) [H3_(1–15)K14ac peptide] | – | 13
